Where a chain is given by its changes, count along the chain named. “And” between values parts separate entries of the source, which are not always exact repeats. Equal entries are not always repeated.
B1: 68F2: anti-IL-6 clone from VL shuffling of 20A4; Fab and human IgG1 formats (antibody, listed as Lama glama, V domains shown)
VH: EVQLQESGPGLVKPSQTLSLTCTVSGGSITTRYYAWSWIRQPPGKGLEWMGVIDYDGDTYYSPSLKSRTSISWDTSKNQFSLQLSSVTPEDTAVYYCARDPDVVTGFHYDYWGQGTQVTVSS
VL: QSALTQPPLVSGTPGQTVTISCAGANNDIGTYAYVSWYQQLPGTAPKLLIYKVTTRASGIPSRFSGSKSGNTASLTISGLQSEDEADYYCASYRNFNNAVFGRGTHLTVLG
B2: 61H7: anti-IL-6 clone from VH chain shuffling of 24D10; Fab and IgG formats (antibody, V domains shown)
VH: EVQLVESGGGLVQPGGSLRLSCAASGFTFSSYRMYWVRQPPGKGLEWVSAISAGGGSTYYGDSVKGRFTISRDNAKNTVYLQMNSLKPEDTAVYYCANRAGWGMGDYWGQGTQVTVSS
VL: QTVVTQEPSLSVSPGGTVTLTCGLSSGSVTASNYPGWFQQTPGQAPRALIYSTNDRHSGVPSRFSGSISGNKAALTITGAQPEDEADYYCALDIGDITEFGGGTHLTVLG
B3: 61B7: 24D10 chain-shuffled Fab (antibody, V domains shown)
VH: B2 VH with V2L, R33A, Y35S, P40A, L45P, A50R, A53S, T58A, G61A, V79L
VL: B2 VL
B4: 55H1c: 29B11 chain shuffled Fab, periplasmic fraction (antibody, V domains shown)
VH: EVQLVESGGGLVQPGGSLRLSCAASGFTFSSYAMSWVRQAPGKGLEWVSRISSGGISTYYADSVKGRFTISRDNAKNTLYLQMNSLKPEDTAVYYCVRYAWGVQWAFDFWGQGTQVTVSS
VL: AQSVVTQPPSVSGSPGKTVTISCAGTSSDVGYGNYVSWYQQLPGMAPKLLIYDVSKRASGIADRFSGSKSGNTASLTISGLQSEDEADYVCASYRRGGTAVFGGGTHLTVLG

Assays:
[1] = test system: induced psoriatic lesions; experiment: Humanized mouse psoriasis xenograft model (epidermal ridge thickness); format: in vivo; conditions: mean±s.e.m.; BNX mice
Method: A mouse xenograft model was employed to evaluate the prophylactic efficacy of clone 68F2 on the development of induced psoriatic lesions. Specifically, BNX mice were transplanted with 5 mm diameter full-thickness skin biopsies from non-involved skin from psoriasis patients (1 per mouse). After 3 weeks, the transplants were injected with 0.5×10^6 activated PBMCs. Treatment of mice with clone 68F2, anti-TNF antibody (Remicade), or betamethasone dipropionate (positive control) was begun 1 day before the activated cells were injected into the transplants.
Treatment efficacy was determined by epidermal ridge thickness, as measured by light microscopy. Significance between groups was analyzed statistically using analysis of variance (ANOVA) followed by post-hoc Least Square Difference (LSD) tests to establish statistical significance differences between treatment groups. A value of p<0.05 denoted a significant difference between groups.

[2] = test system: RXF393 cells; experiment: Renal cell cancer mouse xenograft model; format: in vivo
Method: The in vivo efficacy of clones 68F2 was investigated in a renal cell cancer mouse xenograft model. […] Briefly, RXF393 cells (2×10^6) were injected subcutaneously at both lateral sides of a nude mouse. Tumors were allowed to grow to a volume between of 50 en 300 mm^3, prior to antibody administration. 90% of the injected mice developed a tumor. 40 mice were split into 5 groups of 8 mice. Each group was received intraperatoneal injection of either PBS (control) or a specific dose of clone 68F2 (1, 3, 10, or 30 mg/kg). Tumor size and survival was monitored twice per week.

[3] = target: T1, cynomolgus monkey IL-6 (Macaca fascicularis, UniProt P79341); experiment: Surface plasmon resonance (Biacore), cynomolgus monkey IL-6; format: binding
T1 construct: His

[4] = test system: IL-6; experiment: Serum amyloid A (SAA) mouse model, induction by injected IL-6; format: in vivo; parameters: SAA, Mean / SAA, Mouse1 / SAA, Mouse2 / SAA, Mouse3 / SAA, Mouse4 / SAA, Mouse5 / SAA, Mouse6: unit not given here; conditions: for SAA, Mouse1 / SAA, Mouse2 / SAA, Mouse3 / SAA, Mouse4 / SAA, Mouse5 / SAA, Mouse6 / SAA, Mean: 0.1 μg IL-6; for SAA, Mean: mean of 6 mice; for in vivo efficacy (block of SAA induction): Balb/c mice, i.v., 0.1 ug IL-6
Method: The in vivo efficacy of clones 68F2 and 61H7 was further investigated by measuring the ability of these antibodies to block serum amyloid A (SAA) induction in response to injected IL-6. General methods for performing this assay are set forth in WO2006/119115A2, which is hereby incorporated by reference in its entirety. […] Four hours after administration of the antibody, the mice were injected with 0.1 ug of IL-6. After a further 16 hours, blood was taken from the mice and the concentration of Serum Amyloid A was determined by ELISA. The dose responses are also graphically depicted in FIG. 13.

[5] = target: T2, bacterially produced human IL-6 (Homo sapiens, UniProt P05231); experiment: Surface plasmon resonance (Biacore), bacterially produced human IL-6 coated on CM5 chip; format: binding; conditions: for Bact (off-rate): 24D10 chain-shuffled Fabs
T2 construct: His

[6] = target: T1, cynomolgus monkey IL-6; experiment: Surface plasmon resonance (Biacore), cynomolgus monkey IL-6; format: binding; conditions: periplasmic fractions, 24D10 chain-shuffled Fabs
[7] = target: T3, eukaryotically produced human IL-6 (Homo sapiens, UniProt P05231); experiment: Surface plasmon resonance (Biacore), eukaryotically produced human IL-6 coated on CM5 chip; format: binding; conditions: for RANKED euk (off-rate): 24D10 chain-shuffled Fabs; for Average binding: average over the IL-6 forms
T3 construct: purchased Humanzyme HZ-1044; host or cells: Human Embryonic kidney cells

[8] = Bact, purified 24D10 chain-shuffled Fabs
[9] = Euk IL-6, purified 24D10 chain-shuffled Fabs
[10] = bact, periplasmic fractions, 29B11 chain shuffled
[11] = euk, periplasmic fractions, 29B11 chain shuffled
[12] = cy/cyno, periplasmic fractions, 29B11 chain shuffled

T3 sequence (P05231 30-212): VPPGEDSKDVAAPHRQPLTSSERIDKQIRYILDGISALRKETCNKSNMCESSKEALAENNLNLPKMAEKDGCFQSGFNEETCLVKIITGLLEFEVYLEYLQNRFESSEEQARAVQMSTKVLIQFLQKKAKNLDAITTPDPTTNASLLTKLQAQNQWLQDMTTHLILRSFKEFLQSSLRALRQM
T2 sequence (P05231 30-212): as above
T1 sequence (P79341 28-212): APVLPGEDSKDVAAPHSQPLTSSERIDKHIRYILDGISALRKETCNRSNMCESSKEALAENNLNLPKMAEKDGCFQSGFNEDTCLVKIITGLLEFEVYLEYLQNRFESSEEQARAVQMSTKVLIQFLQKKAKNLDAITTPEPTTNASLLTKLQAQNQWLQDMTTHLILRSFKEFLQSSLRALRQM

Molecule	epidermal ridge thickness [1]	SAA, Mouse1 ([4]; Ab dose/mouse 0.31 μg)	SAA, Mouse2 ([4]; Ab dose/mouse 0.31 μg)	SAA, Mouse3 ([4]; Ab dose/mouse 0.31 μg)	SAA, Mouse4 ([4]; Ab dose/mouse 0.31 μg)	SAA, Mouse5 ([4]; Ab dose/mouse 0.31 μg)	SAA, Mouse6 ([4]; Ab dose/mouse 0.31 μg)	SAA, Mean ([4]; Ab dose/mouse 0.31 μg)	SAA, Mouse1 ([4]; Ab dose/mouse 1.25 μg)	SAA, Mouse2 ([4]; Ab dose/mouse 1.25 μg)	SAA, Mouse3 ([4]; Ab dose/mouse 1.25 μg)	SAA, Mouse4 ([4]; Ab dose/mouse 1.25 μg)	SAA, Mouse5 ([4]; Ab dose/mouse 1.25 μg)	SAA, Mouse6 ([4]; Ab dose/mouse 1.25 μg)	SAA, Mean ([4]; Ab dose/mouse 1.25 μg)	SAA, Mouse1 ([4]; Ab dose/mouse 5 μg)	Bact (off-rate) ([5]; periplasmic fractions)	cyno (off-rate) [6]	RANKED euk (off-rate) ([7]; periplasmic fractions)	Average binding ([7]; periplasmic fractions)	further results
CCC(=O)OCC(=O)[C@@]1(OC(=O)CC)[C@@H](C)C[C@H]2[C@@H]3CCC4=CC(=O)C=C[C@]4(C)[C@@]3(F)[C@@H](O)C[C@@]21C [betamethasone, betamethasone dipropionate]	83 μm																				
Remicade: anti-TNF antibody	125 μm																				
B1	125 μm	83	129	116	132	145	136	123.5	69	67	81	73	47	83	70.0	76					median survival time ([2]; 1 mg/kg): 21 days; median survival time ([2]; 3 mg/kg): 21 days; median survival time ([2]; 10 mg/kg): 27.5 days; median survival time ([2]; 30 mg/kg): 21 days; tumor outgrowth ([2]; 1, 3, 10, 30 mg/kg): effective at inhibiting tumor outgrowth in a dose-dependent manner with saturating effects at 10 mg/kg dose; Koff HIS-cyIL-6 ([3]; purified chain-shuffled Fabs): 0.00075 s⁻¹; SAA, Mouse2 ([4]; Ab dose/mouse 5 μg): 38; SAA, Mouse3 ([4]; Ab dose/mouse 5 μg): 46; SAA, Mouse4 ([4]; Ab dose/mouse 5 μg): 63; SAA, Mouse5 ([4]; Ab dose/mouse 5 μg): 43; SAA, Mouse6 ([4]; Ab dose/mouse 5 μg): 40; SAA, Mean ([4]; Ab dose/mouse 5 μg): 51.0; in vivo efficacy (block of SAA induction) [4]: in vivo efficacy at least equal to the high potency benchmark controls GL18 and CNTO136
B2		184	148	124	140	133	76	134.2	66	29	33	30	24	35	36.2	47	7.54E−05	9.45E−05	9.32E−05	635 RU	ka [5, 8]: 120000 M⁻¹ s⁻¹; kd [5, 8]: 2e-06 s⁻¹; ka [7, 9]: 120000 M⁻¹ s⁻¹; kd [7, 9]: 5.5e-05 s⁻¹; binding ([7]; periplasmic fractions ('pur' = purified Fab), IL-6 form not stated): 176; SAA, Mouse2 ([4]; Ab dose/mouse 5 μg): 62; SAA, Mouse3 ([4]; Ab dose/mouse 5 μg): 47; SAA, Mouse4 ([4]; Ab dose/mouse 5 μg): 40; SAA, Mouse5 ([4]; Ab dose/mouse 5 μg): 46; SAA, Mouse6 ([4]; Ab dose/mouse 5 μg): 47; SAA, Mean ([4]; Ab dose/mouse 5 μg): 48.2; in vivo efficacy (block of SAA induction) [4]: in vivo efficacy at least equal to the high potency benchmark controls GL18 and CNTO136
B3																	9.07E−05	1.16E−04	9.79E−05	597 RU	ka [5, 8]: 350000 M⁻¹ s⁻¹; kd [5, 8]: 5.7e-05 s⁻¹; ka [7, 9]: 330000 M⁻¹ s⁻¹; kd [7, 9]: 6.6e-05 s⁻¹
B4																	1.35E−04 and 1.40E−04 and 1.26E−04	4.17E−04 and 4.30E−04 and 3.90E−04	1.01E−04 and 1.06E−04 and 1.13E−04	773 RU and 770 RU and 873 RU	KA [5, 10]: 1e+10 M⁻¹; ka [5, 10]: 1.28e+06 M⁻¹ s⁻¹; kd [5, 10]: 0.000127 s⁻¹; KA [7, 11]: 1.02e+10 M⁻¹; ka [7, 11]: 1.13e+06 M⁻¹ s⁻¹; kd [7, 11]: 0.000111 s⁻¹; KA [3, 12]: 1.89e+09 M⁻¹; ka [3, 12]: 1.16e+06 M⁻¹ s⁻¹; kd [3, 12]: 0.000615 s⁻¹

Reference: patent publication US11827701B2, “IL-6 binding molecules” (argenx BV, priority 2012, dated 2023)
